Experimental data taken from US12459997B2, “Compounds and methods targeting interleukin-19” (Eli Lilly and Company, priority 2018, dated 2025).

Legend:
[1] = system: Ps0 patients; experiment: Ps0 study in anti-TNFα treatment groups: serum IL-19 and PASI; format: in vivo, human; conditions: for IL-19 serum levels (geometric mean) / % of patients with serum IL-19 concentration ≤ 21 pg/mL / % patients with serum IL-19 concentration ≤ 21 pg/mL achieving at least PASI 75 / % patients with serum IL-19 concentration ≤ 21 pg/mL not achieving at least PASI 75: 50 mg biweekly subcutaneous
Text: (§1) According to an exemplified embodiment, a sandwich ELISA assay for the sensitive detection of IL-19 is provided herein. According to an exemplified embodiment, a first IL-19 antibody (selected from Table 1, 2 or 3) is utilized as an IL-19 capture antibody and a second IL-19 antibody (selected from Table 1, 2 or 3) is utilized as an IL-19 reporter antibody. […] According to some embodiments, one milligram of the first IL-19 antibody (the capture antibody) is biotinylated using Pierce biotinylation kit (Cat #) and one milligram of the second IL-19 antibody (the reporter antibody) is labeled with ruthenium using MesoScale Discovery (MSD) kit for electrochemiluminescent (ECL) detection. According to such embodiment, labeled antibodies are evaluated using MALDI-TOF to ensure suitable labeling, and then diluted in 50% glycerol and stored at −20° C. prior to use.
(§2) Streptavidin-coated 96-well MSD plates are washed three times with TBST (Tris buffered saline containing 10 mmol/L Tris pH 7.40, 150 mmol/L NaCl with 1 mL Tween 20/L) and then blocked with TBS-T plus 1% BSA for 1 hour at room temperature. Plates are again washed and wells are then incubated with biotinylated IL-19 capture antibody (1 mg/L) for 1 hour. Thereafter, plates are again washed prior to patient sample testing.
(§3) During patient sample testing, a standard curve is generated using 50 μL of recombinant human IL-19 control standard (serially diluted IL-19 recombinant protein ranging from 100-0.0001 ng/L, and including a zero blank, in assay buffer of 50 mmol/L HEPES, pH 7.40, 150 mmol/L NaCl, 10 mL/L Triton X-100, 5 mmol/L EDTA, and 5 mmol/L EGTA). […] Patient samples (which, according to the present invention, may include blood, serum or plasma) are diluted 1:4 in assay buffer and added to respective wells. The plate is incubated overnight at 4° C. Following incubation, wells are aspirated and washed 3 times with TBST. Thereafter, 50 μL of ruthenium-labeled IL-19 detection antibody (0.5 mg/L) is added to the wells for a 1-hour incubation at room temperature. Following incubation, wells are aspirated and washed 3 times with TBST. Thereafter, 150 μl of 2×MSD read buffer is added. Ruthenium electrochemiluminescence in the wells is detected using a MSD Sector 6000 plate reader. Data is analyzed and IL-19 MSD immunoassay calibration curve fitting is performed using MesoScale Discovery software. SAS® software version 9.4 (PROC MIXED) is used for assessing treatment effects on IL-19 levels using a mixed effects model with an unstructured covariance matrix and log10 transformed IL-19 concentrations (SAS. Version 9.4 for UNIX; SAS Institute Inc.: Cary, N.C., 2016). Statistical analysis is generated with the ggplot and pROC packages using R version 3.3.3 statistical computing environment (www.R-project.org, Vienna, Austria, 2017).
A study of IL-19 levels, in serum of 35 Ps0 patients that were complete responders when treated with the FDA approved TNFα antagonist, entanercept, is performed. Treatment groups of 50 mg of etanercept (n=35) administered biweekly or placebo are compared. Administration of both treatment groups is subcutaneous. […] IL-19 levels are assessed for prognostic value with PASI improvement at weeks 4 and 12. Serum IL-19 concentration levels are presented in Table 11; prognostic values at week 4 showing correlations of IL-19 serum levels and PASI in psoriasis patients (21 ng/L indicates the upper limit of the normal range of IL-19 in healthy subjects) is presented in Table 12; prognostic values at week 12 showing correlations of IL-19 serum levels and PASI in psoriasis patients (21 ng/L indicates the upper limit of the normal range of IL-19 in healthy subjects) is presented in Table 13.

[2] = system: Ps0 patients; experiment: Ps0 study in anti-IL-23 treatment groups: serum IL-19 and PASI; format: in vivo, human
Text: as §1, §2, §3
A study of IL-19 levels, in serum of Ps0 patients treated with a therapeutic antibody targeting IL-23, mirikizumab, is performed. […] Administration of each treatment group, as a single subcutaneous dose, occurs at day 0. […] IL-19 levels are also assessed for prognostic value with PASI improvement between visits 2 and 12. Serum IL-19 concentration levels are presented in Table 14; a comparative of serum levels at week 8 is presented in Table 15; and prognostic values at week 8 showing correlations of IL-19 serum levels and PASI in psoriasis patients (21 ng/L, indicates the upper limit of the normal range of IL-19 in healthy subjects) are presented in Table 16.

etanercept
IL-19 serum levels (geometric mean) ([1]; Week 0 (baseline)): 98.2 pg/mL
IL-19 serum levels (geometric mean) ([1]; Week 1): 42.3 pg/mL
% of patients with serum IL-19 concentration ≤ 21 pg/mL ([1]; week 4): 37.9% (44/116)
% patients with serum IL-19 concentration ≤ 21 pg/mL achieving at least PASI 75 ([1]; week 4): 22.7% (10/44)
% patients with serum IL-19 concentration ≤ 21 pg/mL not achieving at least PASI 75 ([1]; week 4): 77.3% (34/44)
IL-19 serum levels (geometric mean) ([1]; week 4): 24.3 pg/mL
% of patients with serum IL-19 concentration ≤ 21 pg/mL ([1]; week 12): 42.9% (69/161)
% patients with serum IL-19 concentration ≤ 21 pg/mL achieving at least PASI 75 ([1]; week 12): 49.3% (34/69)
% patients with serum IL-19 concentration ≤ 21 pg/mL not achieving at least PASI 75 ([1]; week 12): 50.7% (35/69)
IL-19 serum levels (geometric mean) ([1]; week 12): 14.2 pg/mL
median reduction in serum IL-19 ([1]; after 1 week): greater than 40 pg/mL
median reduction in serum IL-19 ([1]; at week 4): > 70 pg/mL

B1: mirikizumab (antibody, chains of the INN, looked up, V domains shown)
VH: QVQLVQSGAEVKKPGSSVKVSCKASGYKFTRYVMHWVRQAPGQGLEWMGYINPYNDGTNYNEKFKGRVTITADKSTSTAYMELSSLRSEDTAVYYCARNWDTGLWGQGTTVTVSS
VL: DIQMTQSPSSLSASVGDRVTITCKASDHILKFLTWYQQKPGKAPKLLIYGATSLETGVPSRFSGSGSGTDFTLTISSLQPEDFATYYCQMYWSTPFTFGGGTKVEIK
notes: therapeutic antibody targeting IL-23
IL-19 (geometric mean) serum levels ([2]; 5 mg single subcutaneous dose, Day 1 (baseline)): 16.2 pg/mL
IL-19 (geometric mean) serum levels ([2]; 5 mg single subcutaneous dose, Day 15): 13.9 pg/mL
IL-19 (geometric mean) serum levels ([2]; 5 mg single subcutaneous dose, Day 29): 10.4 pg/mL
IL-19 (geometric mean) serum levels ([2]; 5 mg single subcutaneous dose, Day 57): 13.2 pg/mL
IL-19 (geometric mean) serum levels ([2]; 5 mg single subcutaneous dose, Day 71): 14.5 pg/mL
IL-19 (geometric mean) serum levels ([2]; 20 mg single subcutaneous dose, Day 1 (baseline)): 37.2 pg/mL
IL-19 (geometric mean) serum levels ([2]; 20 mg single subcutaneous dose, Day 15): 27.2 pg/mL
IL-19 (geometric mean) serum levels ([2]; 20 mg single subcutaneous dose, Day 29): 25.4 pg/mL
IL-19 (geometric mean) serum levels ([2]; 20 mg single subcutaneous dose, Day 57): 33.5 pg/mL
IL-19 (geometric mean) serum levels ([2]; 20 mg single subcutaneous dose, Day 71): 28.4 pg/mL
IL-19 (geometric mean) serum levels ([2]; 60 mg single subcutaneous dose, Day 1 (baseline)): 49.8 pg/mL
IL-19 (geometric mean) serum levels ([2]; 60 mg single subcutaneous dose, Day 15): 9.0 pg/mL
IL-19 (geometric mean) serum levels ([2]; 60 mg single subcutaneous dose, Day 29): 10.8 pg/mL
IL-19 (geometric mean) serum levels ([2]; 60 mg single subcutaneous dose, Day 57): 11.9 pg/mL
IL-19 (geometric mean) serum levels ([2]; 60 mg single subcutaneous dose, Day 71): 10.9 pg/mL
IL-19 (geometric mean) serum levels ([2]; 120 mg single subcutaneous dose, Day 1 (baseline)): 52.4 pg/mL
IL-19 (geometric mean) serum levels ([2]; 120 mg single subcutaneous dose, Day 15): 26.6 pg/mL
IL-19 (geometric mean) serum levels ([2]; 120 mg single subcutaneous dose, Day 29): 25.2 pg/mL
IL-19 (geometric mean) serum levels ([2]; 120 mg single subcutaneous dose, Day 57): 22.2 pg/mL
IL-19 (geometric mean) serum levels ([2]; 120 mg single subcutaneous dose, Day 71): 18.2 pg/mL
IL-19 (geometric mean) serum levels ([2]; 200 mg single subcutaneous dose, Day 1 (baseline)): 69.6 pg/mL
IL-19 (geometric mean) serum levels ([2]; 200 mg single subcutaneous dose, Day 15): 36.0 pg/mL
IL-19 (geometric mean) serum levels ([2]; 200 mg single subcutaneous dose, Day 29): 23.3 pg/mL
IL-19 (geometric mean) serum levels ([2]; 200 mg single subcutaneous dose, Day 57): 21.9 pg/mL
IL-19 (geometric mean) serum levels ([2]; 200 mg single subcutaneous dose, Day 71): 22.5 pg/mL
IL-19 (geometric mean) serum levels ([2]; 300 mg, Week 0 (Baseline)): 106.5 pg/mL
IL-19 (geometric mean) serum levels ([2]; 300 mg, Week 8 (End of induction)): 18.2 pg/mL
% of patients with serum IL-19 concentration ≤ 21 pg/mL ([2]; 300 mg, week 8): 58.3% (28/48)
% patients with serum IL-19 concentration ≤ 21 pg/mL achieving at least PASI 75 ([2]; 300 mg, week 8): 71.4% (20/28)
% patients with serum IL-19 concentration ≤ 21 pg/mL not achieving at least PASI 75 ([2]; 300 mg, week 8): 28.6% (8/28)
IL-19 (geometric mean) serum levels ([2]; 350 mg single subcutaneous dose, Day 1 (baseline)): 58.4 pg/mL
IL-19 (geometric mean) serum levels ([2]; 350 mg single subcutaneous dose, Day 15): 35.2 pg/mL
IL-19 (geometric mean) serum levels ([2]; 350 mg single subcutaneous dose, Day 29): 22.4 pg/mL
IL-19 (geometric mean) serum levels ([2]; 350 mg single subcutaneous dose, Day 57): 23.7. pg/ml
IL-19 (geometric mean) serum levels ([2]; 350 mg single subcutaneous dose, Day 71): 18.0 pg/mL
IL-19 (geometric mean) serum levels ([2]; 600 mg single subcutaneous dose, Day 1 (baseline)): 57.3 pg/mL
IL-19 (geometric mean) serum levels ([2]; 600 mg single subcutaneous dose, Day 15): 30.1 pg/mL
IL-19 (geometric mean) serum levels ([2]; 600 mg single subcutaneous dose, Day 29): 21.8 pg/mL
IL-19 (geometric mean) serum levels ([2]; 600 mg single subcutaneous dose, Day 57): 14.4. pg/ml
IL-19 (geometric mean) serum levels ([2]; 600 mg single subcutaneous dose, Day 71): 15.8 pg/mL
